Source: paper PMC11659472 (Communications Biology, 2024)

Molecular target: the molecule itself
Test: cryo-EM structure

B1: Roseospirillum parvum LH1 αβ-polypeptide pair (complex)
chain 1: not shown
chain 2: MATTENVTSSTGLTEAEAKEFHAVYSQSAAGFLAVCAVAHVLAWMWRPFWPGAEGWVMDTAQNLTFLA
Question: B1 was tested. Which “stoichiometry N” value did it give?
Answer: 16
